Measurements taken from patent publication US20200079868A1 (UNIVERSITY OF SOUTHERN CALIFORNIA, published 2020).

B1: scFv A192 (anti-CD20 scFv-G(VPGAG)192Y fusion) (scFv)
scFv: QVQLQQPGAELVKPGASVKMSCKASGYTFTSYNMHWVKQTPGRGLEWIGAIYPGNGDTSYNQKFKGKATLTADKSSSTAYMQLSSLTSEDSAVYYCARSTYYGGDWYFNVWGAGTTVTVSAGGGGSGGGGSGGGGSQIVLSQSPAILSASPGEKVTMTCRASSSVSYIHWFQQKPGSSPKPWIYATSNLASGVPVRFSGSGSGTSYSLTISRVEAEDAATYYCQQWTSNPPTFGGGTKLEIKRTGVPGAGVPGAGVPGAGVPGAGVPGAGVPGAGVPGAGVPGAGVPGAGVPGAGVPGAGVPGAGVPGAGVPGAGVPGAGVPGAGVPGAGVPGAGVPGAGVPGAGVPGAGVPGAGVPGAGVPGAGVPGAGVPGAGVPGAGVPGAGVPGAGVPGAGVPGAGVPGAGVPGAGVPGAGVPGAGVPGAGVPGAGVPGAGVPGAGVPGAGVPGAGVPGAGVPGAGVPGAGVPGAGVPGAGVPGAGVPGAGVPGAGVPGAGVPGAGVPGAGVPGAGVPGAGVPGAGVPGAGVPGAGVPGAGVPGAGVPGAGVPGAGVPGAGVPGAGVPGAGVPGAGVPGAGVPGAGVPGAGVPGAGVPGAGVPGAGVPGAGVPGAGVPGAGVPGAGVPGAGVPGAGVPGAGVPGAGVPGAGVPGAGVPGAGVPGAGVPGAGVPGAGVPGAGVPGAGVPGAGVPGAGVPGAGVPGAGVPGAGVPGAGVPGAGVPGAGVPGAGVPGAGVPGAGVPGAGVPGAGVPGAGVPGAGVPGAGVPGAGVPGAGVPGAGVPGAGVPGAGVPGAGVPGAGVPGAGVPGAGVPGAGVPGAGVPGAGVPGAGVPGAGVPGAGVPGAGVPGAGVPGAGVPGAGVPGAGVPGAGVPGAGVPGAGVPGAGVPGAGVPGAGVPGAGVPGAGVPGAGVPGAGVPGAGVPGAGVPGAGVPGAGVPGAGVPGAGVPGAGVPGAGVPGAGVPGAGVPGAGVPGAGVPGAGVPGAGVPGAGVPGAGVPGAGVPGAGVPGAGVPGAGVPGAGVPGAGVPGAGVPGAGVPGAGVPGAGVPGAGVPGAGVPGAGVPGAGVPGAGVPGAGVPGAGVPGAGVPGAGVPGAGVPGAGVPGAGVPGAGVPGAGVPGAGVPGAGVPGAGVPGAGVPGAGVPGAGVPGAGVPGAGVPGAGVPGAGVPGAGVPGAGVPGAGVPGAGVPGAGVPGAGVPGAGVPGAGVPGAGY
modifications: rhodamine (RHD) labeled in the confocal binding assays; site of the label not stated
B2: Rituximab (antibody, V domains shown)
VH: QVQLQQPGAELVKPGASVKMSCKASGYTFTSYNMHWVKQTPGRGLEWIGAIYPGNGDTSYNQKFKGKATLTADKSSSTAYMQLSSLTSEDSAVYYCARSTYYGGDWYFNVWGAGTTVTVSA
VL: QIVLSQSPAILSASPGEKVTMTCRASSSVSYIHWFQQKPGSSPKPWIYATSNLASGVPVRFSGSGSGTSYSLTISRVEAEDAATYYCQQWTSNPPTFGGGTKLEIK

Target: T1, CD20 (B-lymphocyte antigen CD20) on CD20+ human lymphoma cells (Raji, SU-DHL-7) (human, UniProt P11836 1-297)
T1 sequence (looked up): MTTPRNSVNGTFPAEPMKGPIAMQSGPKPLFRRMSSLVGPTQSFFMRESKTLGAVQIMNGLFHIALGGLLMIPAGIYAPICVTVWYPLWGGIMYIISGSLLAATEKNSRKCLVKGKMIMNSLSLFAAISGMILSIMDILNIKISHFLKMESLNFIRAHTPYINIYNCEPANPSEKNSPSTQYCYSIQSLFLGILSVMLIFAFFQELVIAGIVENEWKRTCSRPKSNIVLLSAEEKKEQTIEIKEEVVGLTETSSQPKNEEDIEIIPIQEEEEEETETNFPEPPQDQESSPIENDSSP
Assay: cell-based or functional assay

Binder | IC50, cell viability (MTS/PMS), Raji cells | IC50, cell viability (MTS/PMS), SU-DHL-7 cells | IC50, cell viability, SU-DHL-7 cells (figure legend; differs from the text)
B1 | 32 µM | 41 µM | 4 µM
B2 | – | 4 µM | –
